Paper PMC3423971 (Structure (London, England : 1993), 2012)
Where a chain is given by its changes, count along the chain named. In names and notes the source's numbering stands. One block for each binder: values may come before it.

What was measured:
[1] = target: ubiquitin-AMC (UniProt P0CG48 1-76, AMC (ubiquitin-AMC)); assay: cell-based or functional assay
[2] = target: the molecule itself; assay: AUC
[3] = target: the molecule itself; assay: AUC; remark: listed apart in the source
[4] = target: the molecule itself; assay: crystal structure

KM of Ub-AMC cleavage (steady-state kinetics, 30°C) [1]: 24 µM
B1: wild-type SAGA deubiquitinating module (DUBm): Ubp8, Sgf11, Sus1, Sgf73(1-96) (complex, yeast)
chain 1: MSICPHIQQVFQNEKSKDGVLKTCNAARYILNHSVPKEKFLNTMKCGTCHEINSGATFMCLQCGFCGCWNHSHFLSHSKQIGHIFGINSNNGLLFCFKCEDYIGNIDLINDAILAKYWDDVCTKTMVPSMERRDGLSGLINMGSTCFMSSILQCLIHNPYFIRHSMSQIHSNNCKVRSPDKCFSCALDKIVHELYGALNTKQASSSSTSTNRQTGFIYLLTCAWKINQNLAGYSQQDAHEFWQFIINQIHQSYVLDLPNAKEVSRANNKQCECIVHTVFEGSLESSIVCPGCQNNSKTTIDPFLDLSLDIKDKKKLYECLDSFHKKEQLKDFNYHCGECNSTQDAIKQLGIHKLPSVLVLQLKRFEHLLNGSNRKLDDFIEFPTYLNMKNYCSTKEKDKHSENGKVPDIIYELIGIVSHKGTVNEGHYIAFCKISGGQWFKFNDSMVSSISQEEVLKEQAYLLFYTIRQVN
chain 2: MTEETITIDSISNGILNNLLTTLIQDIVARETTQQQLLKTRYPDLRSYYFDPNGSLDINGLQKQQESSQYIHCENCGRDVSANRLAAHLQRCLSRGARR
chain 3: MTMDTAQLKSQIQQYLVESGNYELISNELKARLLQEGWVDKVKDLTKSEMNINESTNFTQILSTVEPKALEMVSDSTRETVLKQIREFLEEIVDTQ
chain 4: MRSGDAEIKGIKPKVIEEYSLSQGSGPSNDSWKSLMSSAKDTPLQYDHMNRESLKKYFNPNAQLIEDPLDKPIQYRVCEKCGKPLALTAIVDHLEN

KM of Ub-AMC cleavage (steady-state kinetics, 30°C) [1]: 19 µM
B3: DUBm-ΔSgf11-ZnF-Ubp8^WT: Ubp8, Sgf11(1-72), Sus1, Sgf73(1-96) (complex, yeast)
chain 1: B1 chain 1
chain 2: MTEETITIDSISNGILNNLLTTLIQDIVARETTQQQLLKTRYPDLRSYYFDPNGSLDINGLQKQQESSQYIH
chain 3: B1 chain 3
chain 4: B1 chain 4
Kd [2]: ~17 µM
stoichiometry N [3]: 2

KM of Ub-AMC cleavage (steady-state kinetics, 30°C) [1]: 11 µM
B5: DUBm-ΔSgf11-ZnF-Ubp8^S149N: Ubp8 S149N, Sgf11(1-72), Sus1, Sgf73(1-96) (complex, yeast)
chain 1: B1 chain 1 with S149N
chain 2: B3 chain 2
chain 3: B1 chain 3
chain 4: B1 chain 4

Further lines, the binder ahead of its results:

B2: DUBm-ΔSgf11-ZnF-Ubp8^S144N: Ubp8 S144N, Sgf11(1-72), Sus1, Sgf73(1-96) (complex, yeast)
chain 1: B1 chain 1 with S144N
chain 2: B3 chain 2
chain 3: B1 chain 3
chain 4: B1 chain 4
KM of Ub-AMC cleavage (steady-state kinetics, 30°C) [1]: 17 µM
Kd [2]: 28 µM
stoichiometry N [3]: 2

B4: DUBm-ΔSgf11-ZnF-Ubp8^S144N/S149N: Ubp8 S144N S149N, Sgf11(1-72), Sus1, Sgf73(1-96) (complex, yeast)
chain 1: B1 chain 1 with S144N, S149N
chain 2: B3 chain 2
chain 3: B1 chain 3
chain 4: B1 chain 4
KM of Ub-AMC cleavage (steady-state kinetics, 30°C) [1]: 13 µM

B6: Ubp8 S144N (enzyme, yeast)
chain: B1 chain 1 with S144N
binding result [4]: binds

B7: Ubp8 (wild type) (enzyme, yeast)
chain: B1 chain 1
binding result [4]: binds
